{
  "source": "patent US20040038869A1",
  "about": "(published 2004)",
  "binders": {"B1": {"name": "Recombinant polypeptide from Example 6 (Placobdella papillifera alternative complement pathway inhibitor, mature polypeptide of SEQ ID NO: 16) (other)", "chain": "VEFQDCKKSSDCETLELRCNKNTSKCECRNQVCPRACPDGKYKLDEYGCKRCLCQGCNEAQCRKLCWYGFTTDENGCESYCKCNTKETACKNVLCSDSYQCDPESGNCVAVIPGKEHDYYSYNDDDDEDK", "modifications": "No modification is reported for the recombinant product. paragraph 50 mentions only in general a possible N-glycosylation at Asn22 and sulphation or phosphation of Tyr119, Tyr120 and Tyr122. Disulphide bonds between cysteines are likely but not mapped."}},
  "target": "Human factor D (human, UniProt P00746 26-253)",
  "sequence (P00746 26-253 limits assumed)": "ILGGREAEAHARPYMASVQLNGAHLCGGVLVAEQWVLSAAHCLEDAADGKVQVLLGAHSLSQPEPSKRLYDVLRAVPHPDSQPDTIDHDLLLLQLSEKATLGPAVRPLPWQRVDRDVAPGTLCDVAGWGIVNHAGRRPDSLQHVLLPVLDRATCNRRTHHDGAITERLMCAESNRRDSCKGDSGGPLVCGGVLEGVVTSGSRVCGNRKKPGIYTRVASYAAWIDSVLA",
  "test": "cell-based or functional assay",
  "data": [
    {"binder": "B1", "values": [
      {"measurement": "IC50 of inhibition of CVF-induced C3a generation in human serum (C3a ELISA)", "result": 0.138, "unit": "µg/mL"}
    ]}
  ]
}
